The record followed here is patent publication US20250277031A1.

The target in assay [1] is mouse CD47 on mouse red blood cells (mouse) (UniProt Q61735). The assay can be described thus: flow cytometry on mouse RBCs. A general note: In flow cytometry, cells or beads pass a laser one at a time.
In assay [2] the target is rat CD47 on rat red blood cells (rat) (UniProt P97829). In words: flow cytometry on rat RBCs.
The target of assay [3] is human CD47 on human red blood cells (human) (UniProt Q08722). The assay can be described thus: flow cytometry on human RBCs.
For assay [4], the target named is cynomolgus CD47 on cynomolgus red blood cells (cynomolgus). The assay can be described thus: flow cytometry on cynomolgus RBCs.

Chain of mouse CD47 on mouse red blood cells (mouse) (Q61735 19-303): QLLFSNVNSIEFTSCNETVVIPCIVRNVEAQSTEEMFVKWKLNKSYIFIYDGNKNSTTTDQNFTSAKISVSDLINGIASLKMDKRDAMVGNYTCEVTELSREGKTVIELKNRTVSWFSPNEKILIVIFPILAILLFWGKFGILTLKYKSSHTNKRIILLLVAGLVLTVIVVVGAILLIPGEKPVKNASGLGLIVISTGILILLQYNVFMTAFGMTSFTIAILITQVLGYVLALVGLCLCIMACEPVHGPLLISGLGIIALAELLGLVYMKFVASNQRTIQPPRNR
Chain of rat CD47 on rat red blood cells (rat) (P97829 19-303): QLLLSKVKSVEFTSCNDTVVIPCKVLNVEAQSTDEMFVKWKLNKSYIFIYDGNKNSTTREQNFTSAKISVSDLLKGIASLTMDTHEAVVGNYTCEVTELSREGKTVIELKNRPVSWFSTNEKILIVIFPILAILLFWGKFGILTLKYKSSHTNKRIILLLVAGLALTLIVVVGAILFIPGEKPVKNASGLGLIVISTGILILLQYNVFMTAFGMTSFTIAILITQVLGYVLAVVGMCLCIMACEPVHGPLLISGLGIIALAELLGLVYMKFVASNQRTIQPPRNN

Take Isotype control (antibody): the MFI in assay [1] worked out at 3.21; in assay [2] it was 3.33; in assay [3], 3.65; in assay [4], 3.95.
